# In the RNAGym collection of RNA variant scans (doi:10.7554/elife.80360):
# B1: Twister Ribozyme (parent)
# chain: AACACUGCCAAUGCCGGUCCCAAGCCCGGAUAAAAGUGGAGGGGGCGG
# Variants of: B1
# Test: self-cleavage, relative activity (ratio to wild type); higher = more cleavage; co-transcriptional
row,Variant,self-cleavage
1,AAUACUGCCAAUGCCGGUCCCAUGCCCGGAUAAAAGUGGAGGGGGCGG,0.194
2,AAUACUGCCAAUGCCGGUCCCAGGCCCGGAUAAAAGUGGAGGGGGCGG,0.101
3,AAGACAGCCAAUGCCGGUCCCAAGCCCGGAUAAAAGUGGAGGGGGCGG,0.13
4,AAGACCGCCAAUGCCGGUCCCAAGCCCGGAUAAAAGUGGAGGGGGCGG,0.0367
5,AAGACGGCCAAUGCCGGUCCCAAGCCCGGAUAAAAGUGGAGGGGGCGG,0.015
6,AAUACUGCCAAUGCCCGUCCCAAGCCCGGAUAAAAGUGGAGGGGGCGG,0.163
7,AAUACUGCCAAUGCCUGUCCCAAGCCCGGAUAAAAGUGGAGGGGGCGG,0.183
8,AAUACUGCCAAUGCCAGUCCCAAGCCCGGAUAAAAGUGGAGGGGGCGG,0.248
9,AAGACUGCCAAUGCCGGGCCCAAGCCCGGAUAAAAGUGGAGGGGGCGG,0.0365
10,AAGACUGCCAAUGCCGGACCCAAGCCCGGAUAAAAGUGGAGGGGGCGG,0.116
11,AAGACUGCCAAUGCCGGUCCCAAGCCCGGAUAAAAGAGGAGGGGGCGG,0.421
12,AAGACUGCCAAUGCCGGUCCCAAGCCCGGAUAAAAGGGGAGGGGGCGG,0.478
13,AAGACUGCCAAUGCCGGUCCCAAGCCCGGAUAAAAGCGGAGGGGGCGG,0.18
14,AAUCCUGCCAAUGCCGGUCCCAAGCCCGGAUAAAAGUGGAGGGGGCGG,0.106
15,AAUUCUGCCAAUGCCGGUCCCAAGCCCGGAUAAAAGUGGAGGGGGCGG,0.12
16,AACCCUGCCAAUGCCGGUCCCAAGCCCGGAUAACAGUGGAGGGGGCGG,0.0803
17,AAGACUGCCAAUGCCGGUCCCAAGCCCGGAAAAAAGUGGAGGGGGCGG,0.57
18,AAGACUGCCAAUGCCGGUCCCAAGCCCGGACAAAAGUGGAGGGGGCGG,0.347
19,AACCCUGCCAAUGCCGGUCCCAAGUCCGGAUAAAAGUGGAGGGGGCGG,0.058
20,AAUACUGCCAAUCCCGGUCCCAAGCCCGGAUAAAAGUGGAGGGGGCGG,0.168
21,AAUACUGCCAAUUCCGGUCCCAAGCCCGGAUAAAAGUGGAGGGGGCGG,0.113
22,AAUACUGCCAAUGCCGGUCCCAAGCCCGGAUAAAAGUGAAGGGGGCGG,0.146

row,Variant,self-cleavage
1,AAUACUGCCAAUGCCGGUCCCAAGCCCGGAUAAAAGUGCAGGGGGCGG,0.0856
2,AACCCUGCCAAUGCCGGUCCCCAGCCCGGAUAAAAGUGGAGGGGGCGG,0.0993
3,AACCCUGCCAAUGCCGGUCCCUAGCCCGGAUAAAAGUGGAGGGGGCGG,0.0826
4,AACCCUGCCAAUGCCGGUCUCAAGCCCGGAUAAAAGUGGAGGGGGCGG,0.0732
5,AACCCUGCCAAUGCCGGUCCCAAGCGCGGAUAAAAGUGGAGGGGGCGG,0.103
6,AACCCUGCCAAUGCCGGUCCCAAGCUCGGAUAAAAGUGGAGGGGGCGG,0.0418
7,AAUACUGCCAAUGCCGGUCCCAAGCCCGGAUAAACGUGGAGGGGGCGG,0.493
8,AAUACUGCCAAUGCCGGUCCCAAGCCCGGAUAAAUGUGGAGGGGGCGG,0.421
9,AAUACUGCCAAUGCCGGUCCCAAGCCCGGAUAACAGUGGAGGGGGCGG,0.155
10,AAUACUGCCAAUGCCGGUCCCAAGCCUGGAUAAAAGUGGAGGGGGCGG,0.231
11,AAUACUGCCAAUGCCGGUCCCAAGCCGGGAUAAAAGUGGAGGGGGCGG,0.0437
12,AAUACUGCCAAUGCCGGUCCCAAGCCAGGAUAAAAGUGGAGGGGGCGG,0.159
13,AAUACUGCCAAUGCCGGUCCCAAGCCCGGAUAAAAGUGGAGGGCGCGG,0.446
14,AACCCUGCCAAUGCAGGUCCCAAGCCCGGAUAAAAGUGGAGGGGGCGG,0.12
15,AACCCUGCCAAUGCUGGUCCCAAGCCCGGAUAAAAGUGGAGGGGGCGG,0.271
16,AACCCUGCCAAUGCCGGUCCCAAGCCCGGAUUAAAGUGGAGGGGGCGG,0.159
17,AACCCUGCCAAUGCCGGUCCCAAGCCCGGAUGAAAGUGGAGGGGGCGG,0.146
18,AAUACUGCCAAUGCCGGUCCCAAGCCCGGAUAAAAGUGGAGGGGGCUG,0.513
19,AAUACUGCCAAUGCCGGUCCCAAGCCCGGAUAAAAGUGGAGGGGGCAG,0.361
20,AAUACUGCCAAUGCCGGUCCCAAGCCCGGAAAAAAGUGGAGGGGGCGG,0.249
21,AAUACUGCCAAUGCCGGUCCCAAGCCCGGAUAAAAUUGGAGGGGGCGG,0.064
22,AAUACUGCCAAUGCCGGUCCCAAGCCCGGAUAAAACUGGAGGGGGCGG,0.0744

row,Variant,self-cleavage
1,AACCCUGCCUAUGCCGGUCCCAAGCCCGGAUAAAAGUGGAGGGGGCGG,0.203
2,AAUACUGCCAAUGCCGGUCCCAAGCCCGGAUAAAAGUGGGGGGGGCGG,0.0544
3,AAUACUGCCAAUGCCGGUCCCAAGCCCGGAUAAAAGUGGUGGGGGCGG,0.0995
4,AAUACUGCCAAUGCCGGUCCCAAGCCCCGAUAAAAGUGGAGGGGGCGG,0.167
5,AAUACUGCCAAUGCCGGUCCCAAGCCCAGAUAAAAGUGGAGGGGGCGG,0.409
6,AAUACUGCCAAUGCCGGUCCCAAGCCCGGAUAAAAGAGGAGGGGGCGG,0.533
7,AACCCUGCAAAUGCCGGUCCCAAGCCCGGAUAAAAGUGGAGGGGGCGG,0.114
8,AAUACUGCCAAUGCCGGUCUCAAGCCCGGAUAAAAGUGGAGGGGGCGG,0.308
9,AACCAUGCCAAUGCCGGUCCCAAGCCCGGAUAAAAGUGGAGGGGGCGG,0.0937
10,AAUACUGCCACUGCCGGUCCCAAGCCCGGAUAAAAGUGGAGGGGGCGG,0.191
11,AAUACUGCCAGUGCCGGUCCCAAGCCCGGAUAAAAGUGGAGGGGGCGG,0.438
12,AAUACUGCCAUUGCCGGUCCCAAGCCCGGAUAAAAGUGGAGGGGGCGG,0.428
13,AAUACUGCUAAUGCCGGUCCCAAGCCCGGAUAAAAGUGGAGGGGGCGG,0.253
14,AAUACCGCCAAUGCCGGUCCCAAGCCCGGAUAAAAGUGGAGGGGGCGG,0.0788
15,AAUACAGCCAAUGCCGGUCCCAAGCCCGGAUAAAAGUGGAGGGGGCGG,0.144
16,AACCCUGGCAAUGCCGGUCCCAAGCCCGGAUAAAAGUGGAGGGGGCGG,0.071
17,AAUACUGCCAAUGCCGGUCCAAAGCCCGGAUAAAAGUGGAGGGGGCGG,0.0567
18,AAUACUGCCAAUGCCGGUCCGAAGCCCGGAUAAAAGUGGAGGGGGCGG,0.221
19,AAUACUGCCAAUGCCGAUCCCAAGCCCGGAUAAAAGUGGAGGGGGCGG,0.174
20,AAGACUGCCAAUGCCGGUCCCAAGCCCGGAUAAAAGUGGAGGGGUCGG,0.31
21,AACCCUGCCAAUGCCGGUCCCAAGCCCGGAUAAAAGUGGAGGGGGCGG,0.218
22,AAUACUGCCAAUGCAGGUCCCAAGCCCGGAUAAAAGUGGAGGGGGCGG,0.195

row,Variant,self-cleavage
1,AAUACUGCCAAUGCCGGUCCCAAGUCCGGAUAAAAGUGGAGGGGGCGG,0.238
2,AAUACUUCCAAUGCCGGUCCCAAGCCCGGAUAAAAGUGGAGGGGGCGG,0.0522
3,AAUACUGCCAAUGCCGGUCCCAAGCGCGGAUAAAAGUGGAGGGGGCGG,0.0758
4,AAUACUGCCAAUGCCGGUCCCAAGCUCGGAUAAAAGUGGAGGGGGCGG,0.138
5,AACCCUGCCAAUGCCGGUCCCAAGCCCGGAUAAAUGUGGAGGGGGCGG,0.272
6,AACCCUGCCAAUGCCGGUCCCAAGCCCGGAUAAACGUGGAGGGGGCGG,0.301
7,AAGACUGCCAAUGCCGGUCCCAAGCCCGGAUAAAAGUGGAGGGGGCCG,0.149
8,AAUACUGCCAAAGCCGGUCCCAAGCCCGGAUAAAAGUGGAGGGGGCGG,0.41
9,AAUACUGCCAAGGCCGGUCCCAAGCCCGGAUAAAAGUGGAGGGGGCGG,0.391
10,AAUACUGCCAACGCCGGUCCCAAGCCCGGAUAAAAGUGGAGGGGGCGG,0.39
11,AAGACUGCCAAUGCCGGUCCCAAGCCCGGAUAAAAGUGGAGGGAGCGG,0.509
12,AAUACUGCCAAUGCCGGUCCCAAGCCCGAAUAAAAGUGGAGGGGGCGG,0.32
13,AAUACUGCCAAUGCCGGUCCCAAGCCCGGAUAAAAGUGGAGGGGGCGA,0.381
14,AAUACUGCCAAUGCCGGUCCCAAGCCCGGAUAAAAGUGGAGGGGGCGC,0.484
15,AAUACUGCCAAUGCCGGUCCCAAGCCCGGAUAAAAGUGGAGGGGGAGG,0.338
16,AAUACUGCCAAUGCCGGUACCAAGCCCGGAUAAAAGUGGAGGGGGCGG,0.0875
17,AAUACUGCCAAUGCCGGUUCCAAGCCCGGAUAAAAGUGGAGGGGGCGG,0.374
18,AAUACUGCCAAUGCCGGUCCCAACCCCGGAUAAAAGUGGAGGGGGCGG,0.0842
19,AAUACUGCCAAUGCCGGUCCCAAUCCCGGAUAAAAGUGGAGGGGGCGG,0.0933
20,AAUACUGCCAAUGCCGGUCCCAAGCCCGGAUAGAAGUGGAGGGGGCGG,0.361
21,AAUACUGCCAAUGCCGGUCCCAAGCCCGGUUAAAAGUGGAGGGGGCGG,0.397
22,AAUACUGCCAAUGCCGGUCCCAAGCCCGGAUAAAAGUGGAGCGGGCGG,0.159

row,Variant,self-cleavage
1,AACCCUGCCAAUGCCGGUCCCAAGCCCGGUUAAAAGUGGAGGGGGCGG,0.189
2,AACCCUGCCAAUGCCGGUCCCAAGCCCGGGUAAAAGUGGAGGGGGCGG,0.163
3,AACCCUGCCAAUGCCGGUCCCAGGCCCGGAUAAAAGUGGAGGGGGCGG,0.0448
4,AAUACUGCCAAUGCCGGUCCCAAGCCCGGAUAAAAGUGGAGGGGUCGG,0.338
5,AAUACUGCCAAUGCCGGUCCCAAGCCCGGAUAAAAGUGGAGGGGCCGG,0.179
6,AAUACUGCCAAUGCCGGUCCCAAGCCCGGAUAAAAGUGGAGGGGACGG,0.422
7,AACCCUGCCAGUGCCGGUCCCAAGCCCGGAUAAAAGUGGAGGGGGCGG,0.193
8,AAUAUUGCCAAUGCCGGUCCCAAGCCCGGAUAAAAGUGGAGGGGGCGG,0.315
9,AAUAAUGCCAAUGCCGGUCCCAAGCCCGGAUAAAAGUGGAGGGGGCGG,0.219
10,AAUAGUGCCAAUGCCGGUCCCAAGCCCGGAUAAAAGUGGAGGGGGCGG,0.105
11,AACCCUGCCAAUGGCGGUCCCAAGCCCGGAUAAAAGUGGAGGGGGCGG,0.0948
12,AAUACUGCCAAUGCCGGUCCCAAGCCCGGAUAAAAGUGGAGGUGGCGG,0.0863
13,AAUACUGCCAAUGCCGGUCCCAAGCCCGGAUAAAAGUGGAGGCGGCGG,0.0646
14,AAUACUGCCAAUGCCGGUCCCAAGCCCGGAUAAAAGUGGAGGAGGCGG,0.0963
15,AACCCUGCCAAUGCCGGUGCCAAGCCCGGAUAAAAGUGGAGGGGGCGG,0.0582
16,AACCCUGCCAAUGCCGGUACCAAGCCCGGAUAAAAGUGGAGGGGGCGG,0.0783
17,AACCCUGCCAAUGCCGGUUCCAAGCCCGGAUAAAAGUGGAGGGGGCGG,0.0705
18,AAUACUGCCAAUGCCGGUCCCAAGCCCGGAUAAAAGUCGAGGGGGCGG,0.288
19,AAUACUGCCAAUGCCGGUCCCAAGCCCGGAUAAAAGUAGAGGGGGCGG,0.396
20,AAUACUGCCAAUGCCGGUCCCAAGCCCGGAUAAAAGUGGAUGGGGCGG,0.14
